US20250215097A1
Each block holds one binder with its values, some of them ahead of it.

Biological target: human CCR8 (human) (UniProt P51685)
Test: cell-based or functional assay

human CCR8 (human), sequence (P51685 whole entry): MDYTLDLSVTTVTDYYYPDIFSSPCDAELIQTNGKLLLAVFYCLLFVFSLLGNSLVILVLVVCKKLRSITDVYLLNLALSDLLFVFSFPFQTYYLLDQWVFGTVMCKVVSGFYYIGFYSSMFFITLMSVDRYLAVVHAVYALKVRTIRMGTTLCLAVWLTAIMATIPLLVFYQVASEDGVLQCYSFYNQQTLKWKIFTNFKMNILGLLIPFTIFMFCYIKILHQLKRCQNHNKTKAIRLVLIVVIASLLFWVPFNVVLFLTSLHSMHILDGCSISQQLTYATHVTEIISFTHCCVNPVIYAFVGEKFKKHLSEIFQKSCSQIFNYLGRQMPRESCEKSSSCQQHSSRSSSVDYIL

- ADCC EC50 (nM), NK92-CD16A effectors, HEK293-hCCR8 targets, LDH release: 0.12 nM
- ADCC EC50 (nM), PBMC FcγRIIIA158F/F effectors, HEK293-hCCR8 targets: 0.19 nM
- ADCC EC50 (nM), PBMC FcγRIIIA158V/V effectors, HEK293-hCCR8 targets: 0.05 nM
- ADCC half-maximal effective concentration (EC50), NK92-CD16A effectors, HEK293-hCCR8 targets: 0.03 nM
- ADCC maximal lysis rate, NK92-CD16A effectors, HEK293-hCCR8 targets: 30%
- ADCC maximal lysis rate, PBMC FcγRIIIA158F/F effectors, HEK293-hCCR8 targets: 66%
- ADCC maximal lysis rate, PBMC FcγRIIIA158V/V effectors, HEK293-hCCR8 targets: 68%
B1: m10A11 (chimera) (antibody, from another filing, V domains shown)
VH: EVQLVESGGRLVQPKGSLKLSCAASGFAFNTYALYWIRQAPGKGLEWVARIRSKSNNYATYYADSVKDRFTISRDDSQSMLYLQMNNLKTEDTAMYYCVRARFYYSDYGYAMDYWGQGTSVTVSS
VL: DIVMTQAAPSVPVTPGESVSISCRSSKSLLHSNGNTYLYWFLQRPGQSPQLLIYRMSNLASGVPDRFSGSGSGTAFTLRISRVEAEDVGVYYCMQHLEYPLTFGAGTKLELKR

- ADCC EC50 (nM), PBMC FcγRIIIA158F/F effectors, HEK293-hCCR8 targets: 0.21 nM
- ADCC EC50 (nM), PBMC FcγRIIIA158V/V effectors, HEK293-hCCR8 targets: 0.03 nM
- ADCC maximal lysis rate, PBMC FcγRIIIA158F/F effectors, HEK293-hCCR8 targets: 61%
- ADCC maximal lysis rate, PBMC FcγRIIIA158V/V effectors, HEK293-hCCR8 targets: 63%
B2: h10A11 (antibody, from another filing, V domains shown)
VH: EVQLVESGGALVKPGGSLRLSCAASGFTFSTYALYWVRQAPGKGLEWVGRIRSKSNNYATYYADSVKDRFTISRDDSKNTLYLQMNSLKTEDTAVYYCTRARFYYSDYGYAMDYWGQGTLVTVSS
VL: DIVMTQSPDSLAVSLGERATINCRSSKSLLHSNGNTYLYWYQQKPGQPPKLLIYRMSNLASGVPDRFSGSGSGTDFTLTISSLQAEDVAVYYCMQHLEYPLTFGQGTKLEIKR
